Here are results for five molecules from patent publication US20240034757A1 (OXFORD UNIVERSITY INNOVATION, published 2024).

Experiment [1] concerns the target T1, CCL17_HUMAN (human, UniProt Q92583 24-94).
T1 sequence: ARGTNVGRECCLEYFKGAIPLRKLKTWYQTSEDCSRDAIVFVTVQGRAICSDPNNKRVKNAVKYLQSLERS
The experiment in a line: yeast surface display FACS.

The target in experiment [2] is CCL11_HUMAN (human, UniProt P51671 24-97). Description: yeast surface display FACS.
For experiment [3], the target named is T2, CCL25_HUMAN (human, UniProt O15444 24-150).
T2 sequence: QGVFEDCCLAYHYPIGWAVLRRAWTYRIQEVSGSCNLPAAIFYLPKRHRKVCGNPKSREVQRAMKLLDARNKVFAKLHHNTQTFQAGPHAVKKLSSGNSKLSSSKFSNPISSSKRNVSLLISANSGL
Description: yeast surface display FACS.

Experiment [4] deals with T3, CCL5_HUMAN (human, UniProt P13501 24-91).
T3 sequence: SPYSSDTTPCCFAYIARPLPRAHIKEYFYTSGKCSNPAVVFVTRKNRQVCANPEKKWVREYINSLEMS
Description: yeast surface display FACS.

Experiment [5] addresses T4, CCL18_HUMAN (human, UniProt P55774 21-89).
T4 sequence: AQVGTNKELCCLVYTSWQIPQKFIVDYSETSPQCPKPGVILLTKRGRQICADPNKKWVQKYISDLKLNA
The experiment in a line: yeast surface display FACS.

The target of experiment [6] is T5, CCL8_HUMAN (human, UniProt P80075 24-99).
T5 sequence (looked up): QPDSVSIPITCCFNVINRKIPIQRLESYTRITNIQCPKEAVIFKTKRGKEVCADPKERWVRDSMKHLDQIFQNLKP
The experiment in a line: cell-based or functional assay.

Experiment [7] addresses T6, CCL3_HUMAN (human, UniProt P10147 24-92).
T6 sequence: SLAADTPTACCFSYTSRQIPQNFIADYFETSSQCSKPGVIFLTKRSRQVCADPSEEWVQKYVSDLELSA
Description: cell-based or functional assay.

Experiment [8] deals with T5, CCL8_HUMAN. The experiment in a line: cell-based or functional assay. The source holds these as a separate data set.
For experiment [9], the target named is CCL2-647 (human, UniProt P13500 24-99). The experiment in a line: flow cytometry, inhibition of CCL2-647 binding to THP-1 cells. For orientation: Flow cytometry measures light scatter and fluorescence of single cells or particles in a stream.
Chain of CCL2-647 (P13500 24-99 limits assumed): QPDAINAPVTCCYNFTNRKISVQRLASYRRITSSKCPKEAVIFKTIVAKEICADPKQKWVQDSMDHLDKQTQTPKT
Experiment [10] concerns the target T7, CCL8-647 (human, UniProt P80075 24-99).
T7 sequence (looked up): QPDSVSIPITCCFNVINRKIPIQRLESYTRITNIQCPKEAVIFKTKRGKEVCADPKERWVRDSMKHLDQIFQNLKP
Description: flow cytometry, inhibition of CCL8-647 binding to THP-1 cells.

Experiment [11] has as its target T8, CCL19_HUMAN (human, UniProt Q99731 22-98).
T8 sequence: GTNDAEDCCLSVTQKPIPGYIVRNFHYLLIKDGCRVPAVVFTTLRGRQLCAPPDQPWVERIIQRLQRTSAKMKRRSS
Description: yeast surface display FACS.

In experiment [12] the target is T9, CCL15_HUMAN (human, UniProt Q16663 22-113).
T9 sequence: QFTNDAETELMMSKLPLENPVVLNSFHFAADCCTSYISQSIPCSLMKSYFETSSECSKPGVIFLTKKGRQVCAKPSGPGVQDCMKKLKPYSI
Description: yeast surface display FACS.

For experiment [13], the target named is T5, CCL8_HUMAN. The experiment in a line: yeast surface display FACS.
Experiment [14] deals with T5, CCL8_HUMAN. Description: BLI, dose titration. A general note: BLI is a label-free optical method that tracks binding on a fibre tip over time.

Chain of CCL11_HUMAN (P51671 24-97 limits assumed): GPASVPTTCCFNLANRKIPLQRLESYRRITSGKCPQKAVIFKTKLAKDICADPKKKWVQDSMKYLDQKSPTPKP

B1: P1011_AMBTR (other)
chain: EKDTPKNIPGCEDAGTTAAPPADNPKHYAVYTDKNGCTFKVIGTWMTKEDHRRLPVSLRRVRASSGRVKLPASCQKICKHSVKKFPEGTPCRLVTRDPIKGKNHIKNGCIRGYCSSGVCVSDNRSISCYVLPNNTELTSPSGSFAE
As for B1, the binding result in experiment [1], in experiment [2], in experiment [3], in experiment [4] and in experiment [5] was “binds” in each case.

B2: P672_RHIPU (other)
chain: VCEVSEQEGVGEDNATEDEDYEDFFKPVTCYFANSTVGPLRPPNCTVVCTNNTAWWNDTKSDGGHCYSEYRPEKRTHSREIYNCTIGVCGNGTCIANHTYADCW
As usually defined, the IC50 is the concentration that gives 50% inhibition. Low values mean higher potency, high ones lower potency. For the molecule B2, the “IC50, CCL8 induced THP-1 cell migration” value in experiment [6] was found to be 3 nM. In addition, the “IC50, THP1 cell migration” value in [7] is 5.74 nM; in experiment [8] it was 2.37 nM. For the same molecule, the IC50 in experiment [9] and in experiment [10] was 21 nM throughout.

B3: P1006_AMBCA (other)
chain: DTIGGIPGCGDPATTSAPEDQPKHYAVRTDKNGCKVMVIGTWMTKEDHNLLPPYISKERAPSGKVQLPASCKKNCHGKLKNLPNGTPCREVFGDLRRRRKHIKDGCKVGKCQNGLCVSEERIISCYLPPNITDPRPTHGPLAE
Take B3: the binding result in experiment [3], in experiment [4], in [11] and in [12] was “binds” throughout.

B4: P698_RHISA (other)
chain: NEDDSSDYYDASPMNCSSMSVNSTMGWLSMNCTMSCNGTTFPLSNSTHCFHSYTNLTVQSRMETMTYNCSVGTCSNGTCVENGTTTTCW
With B4, the binding result in experiment [13] and in [4] was “binds” each time.

B5: EVA1(P672 22-32) hybrid protein (designed binder)
chain: EDDEDYEDFFKPVTCYFLVAENKTGYPTIVACKQDCNGTTETAPNGTRCFSIGDEGLRRMTANLPYDCPLGQCSNGDCIPKETYEVCYRRNWRDKKN
For orientation: Kd means a measure of binding affinity in units of concentration. Read a low Kd as higher affinity. B5 returned a Kd in experiment [14] of 490 nM.
